T1: human CD45 (human, UniProt P08575 26-1306)
T1 construct: whole, on cells; BC8 is said to recognize all human isoforms; also called leukocyte common antigen (LCA); T200
T1 sequence (looked up): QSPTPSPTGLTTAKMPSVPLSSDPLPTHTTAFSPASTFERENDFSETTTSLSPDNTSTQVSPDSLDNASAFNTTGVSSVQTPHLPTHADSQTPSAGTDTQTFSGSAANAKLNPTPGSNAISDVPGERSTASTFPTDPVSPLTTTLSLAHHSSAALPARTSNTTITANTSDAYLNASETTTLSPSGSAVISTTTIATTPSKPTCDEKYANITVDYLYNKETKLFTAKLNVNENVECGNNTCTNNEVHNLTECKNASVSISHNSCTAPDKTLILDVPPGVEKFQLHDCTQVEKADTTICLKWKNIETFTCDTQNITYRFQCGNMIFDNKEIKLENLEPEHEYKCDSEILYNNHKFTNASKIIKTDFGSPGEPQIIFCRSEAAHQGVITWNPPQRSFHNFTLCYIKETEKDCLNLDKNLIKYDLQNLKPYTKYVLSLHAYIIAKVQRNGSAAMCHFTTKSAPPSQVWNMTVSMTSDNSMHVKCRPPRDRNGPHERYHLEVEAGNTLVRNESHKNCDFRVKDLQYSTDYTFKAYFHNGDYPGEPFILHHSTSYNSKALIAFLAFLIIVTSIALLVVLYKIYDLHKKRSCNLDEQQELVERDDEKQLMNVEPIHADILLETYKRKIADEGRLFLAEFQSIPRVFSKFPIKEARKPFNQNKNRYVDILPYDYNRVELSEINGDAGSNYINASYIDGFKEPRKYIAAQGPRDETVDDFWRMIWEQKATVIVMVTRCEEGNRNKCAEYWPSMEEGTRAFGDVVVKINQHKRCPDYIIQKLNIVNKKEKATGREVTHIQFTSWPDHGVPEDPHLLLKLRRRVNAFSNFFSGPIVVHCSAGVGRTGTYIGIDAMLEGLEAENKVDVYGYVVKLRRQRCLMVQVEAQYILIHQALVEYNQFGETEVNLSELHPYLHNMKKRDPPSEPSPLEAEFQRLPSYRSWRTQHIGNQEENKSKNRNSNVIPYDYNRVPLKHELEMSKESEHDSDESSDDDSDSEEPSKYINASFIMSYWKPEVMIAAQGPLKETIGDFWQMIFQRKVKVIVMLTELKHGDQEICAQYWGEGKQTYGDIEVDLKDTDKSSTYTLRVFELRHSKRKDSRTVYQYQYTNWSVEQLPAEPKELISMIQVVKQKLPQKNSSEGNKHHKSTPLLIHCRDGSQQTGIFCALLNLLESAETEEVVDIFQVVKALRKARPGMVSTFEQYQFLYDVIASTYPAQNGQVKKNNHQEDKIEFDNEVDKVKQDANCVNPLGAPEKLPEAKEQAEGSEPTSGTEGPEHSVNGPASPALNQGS

B1: DOTA-BC8 (BC8 conjugated with p-SCN-Bn-DOTA, batch A) (antibody, V domains shown)
VH: EVKLLESGGGLVQPGGSLKLSCAASGFDFSRYWMSWVRQAPGKGLEWIGEINPTSSTINFTPSLKDKVFISRDNAKNTLYLQMSKVRSEDTALYYCARGNYYRYGDAMDYWGQGTSVTVS
VL: DIALTQSPASLAVSLGQRATISCRASKSVSTSGYSYLHWYQQKPGQPPKLLIYLASNLESGVPARFSGSGSGTDFTLNIHPVEEEDAATYYCQHSRELPFTFGSGTKLEIKR
modifications: p-SCN-Bn-DOTA conjugated, sites not stated; p-SCN-Bn-DOTA conjugated, about 1.5 DOTA per antibody (batch A), sites not stated; Asn-141 partly deamidated to Asp
notes: Chelator conjugate of murine IgG1 BC8; also called unlabeled DOTA-BC8

Columns and labels:
mouse CD45 (mouse) = mouse CD45 (mouse) (UniProt P06800); assay: CD45+ cell-based binding assay of radiolabeled antibody
mouse CD45 (mouse), sequence (P06800 26-1293): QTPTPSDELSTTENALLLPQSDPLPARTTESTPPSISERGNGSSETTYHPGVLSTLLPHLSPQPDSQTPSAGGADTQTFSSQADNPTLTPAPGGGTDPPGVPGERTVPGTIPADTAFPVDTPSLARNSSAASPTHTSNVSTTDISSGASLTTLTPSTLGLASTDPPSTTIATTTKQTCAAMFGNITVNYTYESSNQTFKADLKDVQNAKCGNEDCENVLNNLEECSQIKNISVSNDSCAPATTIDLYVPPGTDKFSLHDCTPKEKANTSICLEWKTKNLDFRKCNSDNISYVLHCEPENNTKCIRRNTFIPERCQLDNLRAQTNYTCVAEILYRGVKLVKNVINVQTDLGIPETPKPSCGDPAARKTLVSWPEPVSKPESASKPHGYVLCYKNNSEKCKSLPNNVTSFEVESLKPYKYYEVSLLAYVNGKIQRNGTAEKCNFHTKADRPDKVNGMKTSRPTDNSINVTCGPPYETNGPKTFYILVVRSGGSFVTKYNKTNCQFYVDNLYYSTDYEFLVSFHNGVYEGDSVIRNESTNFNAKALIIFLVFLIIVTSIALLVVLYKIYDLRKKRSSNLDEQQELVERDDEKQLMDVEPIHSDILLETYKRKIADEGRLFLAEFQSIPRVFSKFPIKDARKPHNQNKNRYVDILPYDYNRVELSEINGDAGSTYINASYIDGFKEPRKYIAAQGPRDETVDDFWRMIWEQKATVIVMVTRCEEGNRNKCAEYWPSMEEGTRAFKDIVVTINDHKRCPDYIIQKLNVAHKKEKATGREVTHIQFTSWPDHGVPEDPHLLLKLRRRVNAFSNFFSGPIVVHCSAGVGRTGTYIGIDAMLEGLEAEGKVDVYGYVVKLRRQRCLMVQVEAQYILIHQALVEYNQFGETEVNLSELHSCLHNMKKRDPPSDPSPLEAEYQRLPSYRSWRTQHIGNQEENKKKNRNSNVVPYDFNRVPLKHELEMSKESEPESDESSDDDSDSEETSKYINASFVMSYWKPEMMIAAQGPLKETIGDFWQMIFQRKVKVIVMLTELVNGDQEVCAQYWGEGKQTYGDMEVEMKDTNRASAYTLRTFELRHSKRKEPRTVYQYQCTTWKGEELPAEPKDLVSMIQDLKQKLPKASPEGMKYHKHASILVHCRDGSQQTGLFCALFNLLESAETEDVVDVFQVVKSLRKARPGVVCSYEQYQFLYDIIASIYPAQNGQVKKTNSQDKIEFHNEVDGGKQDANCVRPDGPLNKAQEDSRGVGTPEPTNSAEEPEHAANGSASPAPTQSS

human CD45 = target: T1, human CD45; assay: flow cytometry on Cytotrol cells, against naïve BC8 as reference
From the text: Cytotrol cells (Beckman Coulter) were initially used to determine the binding of naïve BC8 antibody to those cells versus control 18B7 antibody (nonspecific control antibody against the fungal polysaccharide glucuronoxylomannan) by flow cytometry (FIG. 13A). The cells were taken up in RPMI medium, and the secondary antibody was PE labeled rat anti-mouse IgG1 from Biolegend.
Finally, we performed the side by side comparison of the binding of DOTA-BC8 sample to Cytotrol cells by flow cytometry (FIG. 14B), followed by immediate radiolabeling of the same sample with ²²⁵Ac and binding of the radiolabeled sample to Cytotrol cells (FIG. 14A). The binding of the DOTA-BC8 to the cells by flow cytometry (around 60% of the naïve BC8 binding) matched that of radiolabeled ²²⁵Ac-DOTA-BC8 to Cytotrol cells.

Molecule	immunoreactivity (mouse CD45 (mouse)) [%]	binding relative to naïve BC8 (human CD45) [%]	immunoreactivity relative to naïve BC8 (human CD45) [%]
^131I-labeled anti-mouse pan-CD45 antibody 30F11	> 95	–	–
^177Lu-labeled anti-mouse pan-CD45 antibody 30F11	> 95	–	–
B1	–	~60	~70

Reference: US20220378955A1 (ACTINIUM PHARMACEUTICALS, published 2022)
